How the values were obtained:
[1] = biological target: T1, Recombinant Human FGFR1 alpha (IIIc) Fc Chimera Protein (Homo sapiens, UniProt P11362); experiment: SPR binding affinity of chemically synthesized cyclic peptide to immobilized FGFR; conditions: SPR binding amount at 10 nmol/L cyclic peptide, 25° C.; chemically synthesized product
T1 construct: purchased R&D systems 658-FR-050
Protocol: The binding affinity of the cyclic peptide to FGFR was evaluated using a surface plasmon resonance (SPR) method.
(§1) The binding affinity of the chemically synthesized cyclic peptide to FGFR was evaluated by the following procedure.
A CM5 sensor chip (Cytiva, 29149603) was set in Biacore-T200 (manufactured by Cytiva) which is a surface plasmon resonance device, and an HBS-EP buffer (Cytiva, BR100826) was added as a running buffer at a flow rate of 10 μL/min to equilibrate the flow channel. Next, 70 μL of a mixed aqueous solution of 0.2 mol/L 1-(3-dimethylaminopropyl)-3-ethylcarbodiimide (EDC) and 0.05 mol/L N-hydroxysuccinimide (NHS) was added to activate the sensor chip. Then, Recombinant Human FGFR1 alpha (IIIc) Fc Chimera Protein CF (R&D systems, 658-FR-050) prepared at 50 nmol/L in an Acetate 4.5 buffer (Cytiva, BR100350) was added thereto to perform immobilization at about 5000 RU. Thereafter, the blocking treatment was performed with an ethanolamine solution. In addition, in another flow channel of the same sensor chip, blocking treatment was performed immediately after activation without immobilizing FGFR.
A cyclic peptide diluted to 10 nmol/L using HBS-EP was added to each flow channel of the FGFR-immobilized sensor chip produced above at 25° C. for 10 minutes, then HBS-EP was allowed to flow as a running buffer for 30 minutes, and the binding of the cyclic peptide to FGFR was measured. Thereafter, a regeneration treatment of removing the bound cyclic peptide was performed by repeating the flow of a regeneration liquid in which sodium chloride powder was dissolved in Glysine 1.5 (Cytiva, BR100354) to a final concentration of 0.15 mol/L for 1 minute in each flow channel twice. The binding amount of the cyclic peptide was evaluated from the difference between the measured value of Biacore-T200 in the flow channel in which FGFR was immobilized and the measured value of Biacore-T200 in the flow channel in which FGFR was not immobilised, in a case where a 10 nmol/L cyclic peptide was allowed to flow.
The binding amount of the cyclic peptide evaluated above was normalized to the binding amount of the cyclic peptide molecules per one molecule of FGFR using the molecular weights of the cyclic peptide and FGFR, and the binding affinity to FGFR was evaluated according to the following evaluation criteria. The evaluation result preferably satisfies the evaluation criteria A, B, or C.
• A: The binding amount is 0.7 molecules of the cyclic peptide/one molecule of FGFR or more. • B: The binding amount is 0.5 molecules of the cyclic peptide/one molecule of FGFR or more and less than 0.7 molecules of cyclic peptide/one molecule of FGFR. • C: The binding amount is 0.1 molecules of cyclic peptide/one molecule of FGFR or more and less than 0.5 molecules of cyclic peptide/one molecule of FGFR. • D: The binding amount is less than 0.1 molecules of the cyclic peptide/one molecule of FGFR.

[2] = biological target: T2, FGFR4 Protein, Human, Recombinant (His Tag) (Homo sapiens, UniProt P22455); experiment: SPR FGFR versatility, FGFR4 on immobilized cyclic peptide; assay type: binding; conditions: 1 μmol/L FGFR, 25° C.
T2 construct: His tag; purchased Sino Biological 10538-H08H
T2 sequence (P22455 22-369 limits assumed): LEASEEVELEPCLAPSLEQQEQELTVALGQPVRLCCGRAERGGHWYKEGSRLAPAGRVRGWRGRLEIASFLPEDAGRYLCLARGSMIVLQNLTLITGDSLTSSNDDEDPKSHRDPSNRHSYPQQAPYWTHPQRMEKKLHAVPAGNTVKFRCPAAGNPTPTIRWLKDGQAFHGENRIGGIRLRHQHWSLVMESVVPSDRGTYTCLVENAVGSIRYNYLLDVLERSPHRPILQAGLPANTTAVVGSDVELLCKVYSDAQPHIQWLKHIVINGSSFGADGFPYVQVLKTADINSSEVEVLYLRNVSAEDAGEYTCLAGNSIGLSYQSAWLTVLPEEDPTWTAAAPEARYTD
Protocol: The binding of the cyclic peptide to various types of FGFRs was evaluated using a surface plasmon resonance (SPR) method.
as §1
A CM5 sensor chip (Cytiva, 29149603) was set in Biacore-T200 (manufactured by Cytiva) which is a surface plasmon resonance device, and an HBS-EP buffer (Cytiva, BR100826) was added as a running buffer at a flow rate of 10 μL/min to equilibrate the flow channel. Next, 70 μL of a mixed aqueous solution of 0.2 mol/L 1-(3-dimethylaminopropyl)-3-ethylcarbodiimide (EDC) and 0.05 mol/L N-hydroxysuccinimide (NHS) was added to activate the sensor chip. Then, a cyclic peptide prepared to 2 mg/mL in HBS-EP buffer was added thereto to perform immobilization at about 200 RU. […]
After various FGFRs (FGFR1 Protein, Human, Recombinant (His Tag) (Sino Biological, 10616-H08H), FGFR3 Protein, Human, Recombinant (ECD, His Tag) (Sino Biological, 16044-H08H), FGFR4 Protein, Human, Recombinant (His Tag) (Sino Biological, 10538-H08H)) diluted with HBS-EP to 1 μmol/L at 25° C. was added to each flow channel of the cyclic peptide-immobilized sensor chip prepared above, for 10 minutes, HBS-EP was allowed to flow as a running buffer for 30 minutes, and the binding of various FGFRs to the cyclic peptide was measured. […]

T1 sequence (P11362 with tags, fused parts or gaps limits assumed): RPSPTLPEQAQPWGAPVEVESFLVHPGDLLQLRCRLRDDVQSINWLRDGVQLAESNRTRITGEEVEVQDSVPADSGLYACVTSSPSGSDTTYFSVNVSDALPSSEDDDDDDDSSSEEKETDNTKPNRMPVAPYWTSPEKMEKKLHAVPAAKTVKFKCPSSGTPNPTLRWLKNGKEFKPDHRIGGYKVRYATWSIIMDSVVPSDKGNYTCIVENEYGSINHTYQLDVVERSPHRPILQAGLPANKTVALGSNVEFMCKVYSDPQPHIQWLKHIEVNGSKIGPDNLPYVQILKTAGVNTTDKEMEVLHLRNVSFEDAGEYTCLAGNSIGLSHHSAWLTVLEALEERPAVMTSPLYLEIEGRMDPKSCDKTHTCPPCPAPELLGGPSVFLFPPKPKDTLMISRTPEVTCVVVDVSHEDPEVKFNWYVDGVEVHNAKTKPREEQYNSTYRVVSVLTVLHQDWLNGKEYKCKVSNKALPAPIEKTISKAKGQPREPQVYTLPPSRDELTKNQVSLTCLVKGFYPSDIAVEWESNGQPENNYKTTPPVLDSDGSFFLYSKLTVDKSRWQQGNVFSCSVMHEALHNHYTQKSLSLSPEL

“335 (ACVWTFDRHAQEISQALHKVKKK; not fully specified; Description of Artificial Sequence: Cyclic peptide) [compound 335]” was tested, and the “Evaluation result of binding affinity to FGFR” value [1] was “A (The binding amount is 0.7 molecules of the cyclic peptide/one molecule of FGFR or more.)” and the “Evaluation result of binding affinity to FGFR4” value [2] was “A (The binding amount is 0.05 molecules of FGFR/one molecule of the cyclic peptide or more.)”.

— patent US20260008817A1, “CYCLIC PEPTIDE OR SALT THEREOF, AND USES THEREOF” (FUJIFILM Corporation, priority 2023, published 2026)
